Experimental data published in publication PMC3322552.

Biological target: Caulobacter crescentus ScsC with a His tag, without signal sequence (Caulobacter crescentus)
Test: SEC

- stoichiometry N: 2
Substance: Caulobacter crescentus ScsC with a His tag, without signal sequence (natural protein)
